Laboratory results reported in US20240209100A1 (DIAGONAL THERAPEUTICS, published 2024).
Each block holds one binder with its values, some of them ahead of it.

Legend:
[1] = target: T1, IL-18 receptor (IL-18Rα/IL-18Rβ) overexpressed on HEK-Blue IL-18 cells (Homo sapiens (Human), UniProt Q13478 19-541; O95256 20-599); assay: cell-based or functional assay
T1 sequence 1: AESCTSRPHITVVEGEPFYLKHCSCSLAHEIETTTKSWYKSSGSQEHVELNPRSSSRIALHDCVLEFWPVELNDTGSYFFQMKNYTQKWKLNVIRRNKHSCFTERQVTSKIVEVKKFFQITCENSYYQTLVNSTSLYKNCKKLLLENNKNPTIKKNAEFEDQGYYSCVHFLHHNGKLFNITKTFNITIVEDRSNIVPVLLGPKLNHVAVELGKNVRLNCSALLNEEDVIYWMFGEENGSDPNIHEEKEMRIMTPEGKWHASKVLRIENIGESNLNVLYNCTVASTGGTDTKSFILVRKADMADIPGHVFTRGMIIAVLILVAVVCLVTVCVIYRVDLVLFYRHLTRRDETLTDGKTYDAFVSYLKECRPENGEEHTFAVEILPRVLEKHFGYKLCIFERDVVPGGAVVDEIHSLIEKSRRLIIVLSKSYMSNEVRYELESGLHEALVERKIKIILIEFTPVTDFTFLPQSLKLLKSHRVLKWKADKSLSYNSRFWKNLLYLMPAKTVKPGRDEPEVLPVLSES
T1 sequence 2: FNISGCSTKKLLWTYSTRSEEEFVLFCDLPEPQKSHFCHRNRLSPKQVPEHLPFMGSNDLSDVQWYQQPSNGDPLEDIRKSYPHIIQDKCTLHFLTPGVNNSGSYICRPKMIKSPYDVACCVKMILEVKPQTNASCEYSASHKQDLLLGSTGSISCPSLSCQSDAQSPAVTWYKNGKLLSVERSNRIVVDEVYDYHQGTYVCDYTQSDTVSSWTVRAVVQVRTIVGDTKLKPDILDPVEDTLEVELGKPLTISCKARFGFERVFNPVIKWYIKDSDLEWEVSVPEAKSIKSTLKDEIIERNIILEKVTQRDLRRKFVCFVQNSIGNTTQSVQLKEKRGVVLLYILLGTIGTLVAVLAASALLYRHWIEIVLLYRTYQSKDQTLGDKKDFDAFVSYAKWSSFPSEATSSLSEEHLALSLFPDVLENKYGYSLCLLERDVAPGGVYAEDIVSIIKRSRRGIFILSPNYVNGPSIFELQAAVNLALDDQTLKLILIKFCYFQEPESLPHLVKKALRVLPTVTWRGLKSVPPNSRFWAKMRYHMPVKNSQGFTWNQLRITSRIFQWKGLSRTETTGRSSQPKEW

[2] = target: T1, IL-18 receptor (IL-18Rα/IL-18Rβ) …; assay: cell-based or functional assay; remark: listed apart in the source

B5: DGL091 (bispecific antibody, V domains shown)
V domain 1: QVQLVESGGGLVQAGGSLRLSCAASGRTFSKHAMGWFRQAPGKEREFVAAIDWSGGSTYYADSVKGRFTISRDNAKNTVYLQMDSLKPEDTAVYYCAADSYTDYAQLWLPELESEYDYWGQGTQVTVSS
V domain 2: QVQLVESGGGLVQAGDSLRLSCVASERTFSSYTMGWFRQAPGKEREFTAALSWWNGGISTAYADSVKGRFTISRDNAKNTVYLQMNSLKTEDTALYYCAAARDRMPRADEYDYWGQGTQVTVSS
HEK-Blue IL-18: Abs405 (Emax) [2]: 0.35 Abs
HEK-Blue IL-18: EC50 [2]: 0.032 nM

B6: DGL092 (bispecific antibody, V domains shown)
V domain 1: B5 V domain 1
V domain 2: EVQLVESGGGLVQAGGSLRLSCAASGRTFRNYHMGWFRQAPGQEREFVAAISSSGGKTSYPDSVNGRFTISRDNAKNTVYLQMNNLKVEDTAVYYCAADPRYWVAAGGSEPENVEVWGQGTLVTVSS
HEK-Blue IL-18: Abs405 (Emax) [2]: 0.61 Abs
HEK-Blue IL-18: EC50 [2]: 0.019 nM

B8: DGL094 (bispecific antibody, V domains shown)
V domain 1: QVQLVESGGGLVQAGGSLRLSCAASGRTFSSYTMGWFRQAPGKEREFVAAISWSAGRTYYADSVKGRFTISRDNAKNTVYLQMNSLKPEDTAVYFCAAEEAPDWAPIDCSGYGCLSLYDYWGQGTQVTVSS
V domain 2: QVQLVESGGGLVLPGESLRLSCVVSGTIDNINSMGWYRQAPGKQRELVAYITKLGSANYADSVEGRFTISRDNAKKTVHLQMNSLKPEDTAVYYCHANERGRITWAQGTQVTVSS
HEK-Blue IL-18: Abs405 (Emax) [2]: 0.7 Abs
HEK-Blue IL-18: EC50 [2]: 0.019 nM

B9: DGL049 (bispecific antibody, V domains shown)
V domain 1: QVQLQESGGGLVQAGGSLRLSCIVSGSIVRIDFMGWYRQAPGKKRDMVATITTGGSTNYADSVKDRFTISRDNAKNTLSLQVNDLKPEDTAVYYCNSVVHTTSRPPVLYWGQGTQVTVSS
V domain 2: QVQLVESGGDLVLPGGSLKLSCEASGSISSRNSMAWYRRAPGKQRELVAAISSISSGGRTDYADFVKGRFTIFRDTAKNMVYLQMNNLKPEDTAVYDCDDPIRVASLAYDDWGQGTQVTVSS
HEK-Blue IL-18: Abs405 (Emax) [2]: 0.34 Abs
HEK-Blue IL-18: EC50 [2]: 0.01 nM

B10: DGL079 (bispecific antibody, V domains shown)
V domain 1: EVQLVESGGGLVQAGGSLRLSCAASGRTFSNYDMGWFRQAPEKEREFVAVISGPGGIAFYGDSVKGRFTISRDNTKNTVYLQMNRLKSEDTAVYYCAAAPRGSYYRRTNSYDYWGQGTQVTVSS
V domain 2: EVQLVESGGGVAQAGGSLRLSCAASITSFSLNTMGYYRQLPGKQRELVAVESSSGITNYADSVKGRFTISRDGAKNTVFLQMNSLTPEDTAVYYCGGKLFGRDFWGQGTQVTVSS
HEK-Blue IL-18: Abs405 (Emax) [2]: 0.32 Abs
HEK-Blue IL-18: EC50 [2]: 0.017 nM

B11: DGL097 (bispecific antibody, V domains shown)
V domain 1: QVQLVESGGGLVQAGGSLRLSCAASGRTFSSYDMGWFRQAPGKEREFVAALRWSGGSTSYADSVKGRFTISRDNAKNTVYLHMNSLKPEDTAVYYCAATLETDSGTYWADYWGQGTQVTVSS
V domain 2: QVQLVESGGGLVQAGGSLRLSCVASGTFFQIHVMGWYRQAPGKQRELVAFIINNGGTRYADSVKGRFTISRDYAKNTVYLQMNSLKPEDTAVYYCNTEGTYRGRYSTDNWGQGTQVTVSS
HEK-Blue IL-18: Abs405 (Emax) [2]: 0.45 Abs
HEK-Blue IL-18: EC50 [2]: 0.014 nM

Next, values leading:

HEK-Blue IL-18: Abs 405 at 100 nM [1]: 1.1 Abs
HEK-Blue IL-18: Fold over Background [1]: 4.6 fold
B1: DGL210 (bispecific antibody)
heavy 1: QVQLVESGGGLVQAGGSLRLSCAASGRTFSKHAMGWFRQAPGKEREFVAAIDWSGGSTYYADSVKGRFTISRDNAKNTVYLQMDSLKPEDTAVYYCAADSYTDYAQLWLPELESEYDYWGQGTLVTVSSGGGGSGGGGSGGGGSGGGGSCPPCPAPEAAGAPSVFLFPPKPKDTLMISRTPEVTCVVVDVSHEDPEVKFNWYVDGVEVHNAKTKPREEQYNSTYRVVSVLTVLHQDWLNGKEYKCKVSNKALPAPIEKTISKAKGQPREPQVCTLPPSRDELTKNQVSLSCAVKGFYPSDIAVEWESNGQPENNYKTTPPVLDSDGSFFLVSKLTVDKSRWQQGNVFSCSVMHEALHNHYTQKSLSLSPGWSHPQFEK
heavy 2: QLQLVESGGGLVQAGGSLRLSCAASRSITFSHNVMGWYRQAPGKQRELVASIGSGGSTNYVDSVKGRATISRDNAKKTVYLQMNSLKPEDTAVYYCGVVVGVYRGSLGQGTLVTVSSGGGGSGGGGSGGGGSGGGGSCPPCPAPEAAGAPSVFLFPPKPKDTLMISRTPEVTCVVVDVSHEDPEVKFNWYVDGVEVHNAKTKPREEQYNSTYRVVSVLTVLHQDWLNGKEYKCKVSNKALPAPIEKTISKAKGQPREPQVYTLPPCRDELTKNQVSLWCLVKGFYPSDIAVEWESNGQPENNYKTTPPVLDSDGSFFLYSKLTVDKSRWQQGNVFSCSVMHEALHNHYTQKSLSLSPGEPEA

HEK-Blue IL-18: Abs 405 at 100 nM [1]: 1.4 Abs
HEK-Blue IL-18: Fold over Background [1]: 5.9 fold
B2: DGL208 (bispecific antibody)
heavy 1: QVQLVESGGGLVQAGGSLRLSCAASGRTFSKHAMGWFRQAPGKEREFVAAIDWSGGSTYYADSVKGRFTISRDNAKNTVYLQMDSLKPEDTAVYYCAADSYTDYAQLWLPELESEYDYWGQGTLVTVSSPLAPDKTHTCPPCPAPEAAGAPSVFLFPPKPKDTLMISRTPEVTCVVVDVSHEDPEVKFNWYVDGVEVHNAKTKPREEQYNSTYRVVSVLTVLHQDWLNGKEYKCKVSNKALPAPIEKTISKAKGQPREPQVCTLPPSRDELTKNQVSLSCAVKGFYPSDIAVEWESNGQPENNYKTTPPVLDSDGSFFLVSKLTVDKSRWQQGNVFSCSVMHEALHNHYTQKSLSLSPGWSHPQFEK
heavy 2: not shown

HEK-Blue IL-18: Abs 405 at 100 nM [1]: 2 Abs
HEK-Blue IL-18: Fold over Background [1]: 8.7 fold
B3: DGL209 (bispecific antibody)
heavy 1: QVQLVESGGGLVQAGGSLRLSCAASGRTFSKHAMGWFRQAPGKEREFVAAIDWSGGSTYYADSVKGRFTISRDNAKNTVYLQMDSLKPEDTAVYYCAADSYTDYAQLWLPELESEYDYWGQGTLVTVSSPLAPCPPCPAPEAAGAPSVFLFPPKPKDTLMISRTPEVTCVVVDVSHEDPEVKFNWYVDGVEVHNAKTKPREEQYNSTYRVVSVLTVLHQDWLNGKEYKCKVSNKALPAPIEKTISKAKGQPREPQVCTLPPSRDELTKNQVSLSCAVKGFYPSDIAVEWESNGQPENNYKTTPPVLDSDGSFFLVSKLTVDKSRWQQGNVFSCSVMHEALHNHYTQKSLSLSPGWSHPQFEK
heavy 2: QLQLVESGGGLVQAGGSLRLSCAASRSITFSHNVMGWYRQAPGKQRELVASIGSGGSTNYVDSVKGRATISRDNAKKTVYLQMNSLKPEDTAVYYCGVVVGVYRGSLGQGTLVTVSSPLAPCPPCPAPEAAGAPSVFLFPPKPKDTLMISRTPEVTCVVVDVSHEDPEVKFNWYVDGVEVHNAKTKPREEQYNSTYRVVSVLTVLHQDWLNGKEYKCKVSNKALPAPIEKTISKAKGQPREPQVYTLPPCRDELTKNQVSLWCLVKGFYPSDIAVEWESNGQPENNYKTTPPVLDSDGSFFLYSKLTVDKSRWQQGNVFSCSVMHEALHNHYTQKSLSLSPGEPEA

HEK-Blue IL-18: Abs405 (Emax) [2]: 0.47 Abs
HEK-Blue IL-18: EC50 [2]: 0.012 nM
B4: DGL082 (bispecific antibody, V domains shown)
V domain 1: EVQLVESGGGLVQPGGSLRLSCAASGSIFSINAMGWYRQAPGKQREVVATSTGGGMTNYADSVKGRFTISRDNAKNTVYLQMNSLKPEDTAVYYCNADKDPFFPGDYWGQGTQVTVSS
V domain 2: QVQLVESGGGLVQAGGSLRLSCAASGRSVSENDVRWYRQAPRKQREWVAAITSSGITGYADSVRIRFTISRDLAKNTVYLQMNSLKPEDTAVYYCYMTDQYWGQGTQVTVSS

HEK-Blue IL-18: Abs405 (Emax) [2]: 0.26 Abs
HEK-Blue IL-18: EC50 [2]: 0.033 nM
B7: DGL090 (bispecific antibody, V domains shown)
V domain 1: EVQLVESGGGLVQPGGSLRLSCAASGFFLDDYVLGWFRQAPGKPREGVSCISSRGRYLNYAETVKGRFTISRSNAKNTVYLQMNNLEPEDTAVYYCAAVRRVSEVCKLAEDDFASWGQGTQVTVSS
V domain 2: QVQLQESGGGLVQAGGSLKLSCQASGLTFKRNTMGWFRQAPGKEREFVAHFLWTGGETDYADAVKGRFTISRDNAKNTVYLQMNSLKPEDTAVYFCAANYAGYRIDGYQYWGQGTQVTVSS
